Experiment: yeast display, Sf9 membrane polyspecificity reagent, FACS + sequencing; frameworks hold sequencing errors
In short: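 Galactose induction of a Saccharomyces cerevisiae BJ5465 synthetic nanobody display library ran 36–48 hours. The cells were then stained for 1 hour at 4 °C with 10% biotinylated, detergent-solubilized Sf9 membrane reagent, pulled down on streptavidin microbeads and FACS-sorted into low and high (top ~1%) gates on expression and reagent-binding fluorescence. Labels for polyreactivity follow the gate of origin.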

QVQLVESGGGLVQAGGSLRLSCAASGFILYFNAMGWYRQAPGKERELVAAITSDGGSTYYADSVKGRFTISRDNAKNTVYLQMNSLKPEDTAVYYCAADASTWYTEEYWGQGTQVTVSS
polyreactivity (PSR sort gate): low polyreactivity

QVQLVESGGGLVQAGGSLRLSCAASGFILYFNAMGWYRQAPGKERELVAVISGTGVRTNYADSVKGRFTISRDNAKNTVYLQMYSLKPEDTAVYYCAAGYYSYRPRDYWGQGTQVTVSS
polyreactivity (PSR sort gate): low polyreactivity

QVQLVESGGGLVQAGGSLRLSCAASGFILYGNARGWYRQAPGKERELVAAISSSGRTNYADYVKGRFTISRDNAKNTVYLQMNRLKPEDTAVYYCADYVRAGYGMGYWGQGTQVTVSS
polyreactivity (PSR sort gate): low polyreactivity

QVQLVESGGGLVQAGGSLRLSCAASGFILYYNAMGWYRQAPGKERELVADISRRGTSTYYADSVKGRFTISRDNAKNTVYLQMNRLKPEDTAVYYCKAVPSARTQPYNGWGQGTQVTVSS
polyreactivity (PSR sort gate): high polyreactivity

QVQLVESGGGLVQAGGSLRLSCAASGFILYYYAMGWYRQAPGKERELVAAISSGGNTDYADSVKGRFTISRDNAKNTVYLQMNSLKPEDTAVYYCAARGYHYSYLRGDTGYYYWGQGTQVTVSS
polyreactivity (PSR sort gate): low polyreactivity

QVQLVESGGGLVQAGGSLRLSCAASGFINSDYAMGWYRPAPGKERELVAVITWRSGSTYYADSVKGRFTISRDYAKNTVYLQMNSLKPEDTAVYYCAARNYRNYSQGRRLGYNDWGQGTQVTVTS
polyreactivity (PSR sort gate): high polyreactivity

QVQLVESGGGLVQAGGSLRLSCAASGFIQDLYVMGWYRQAPGKERELVAAISSVGSTYADSVKGRFTISRDNAKNTVYLQMNSLKPEDTAVYYCAKDGTDYDYNYWGQGTQVTVSS
polyreactivity (PSR sort gate): low polyreactivity

QVQLVESGGGLVQAGGSLRLSCAASGFISDWYAMGWFRQAPGKERELVATIDWLGGSTYAHSVKGRFTISRDNAKNTVYLQMNSLKPEDTAVYYCAADSYFIAWYGAPYAYDYWGQGTQVTVSS
polyreactivity (PSR sort gate): low polyreactivity

QVQLVESGGGLVQAGGSLRLSCAASGFISPNAMGWYRQAPGKERELVAAISRSGGSTYYADSVKGRFTISRDNAKNTVYLQMNSLKTEDTAVYYCAAGRLYSYRRQYGYWGQGTQVTVSS
polyreactivity (PSR sort gate): high polyreactivity

QVQLVESGGGLVQAGGSLRLSCAASGFISPQNTMGWYRQAPGKERELVAAITSGGSTYYADSVKGRFTISRDNAKNTVYLLMNSLKPEDTAVYYCASRPYGTWTYGYWGQGTQVTVSS
polyreactivity (PSR sort gate): low polyreactivity

QVQLVESGGGLVQAGGSLRLSCAASGFISSINAMGWYRQAPGKERELVAGIRARGTSTYYADSVKGRFTISRDNAKNTVYLQMNSLKPEDTAVYYCAADFTYQGSSANDYWGQGTQVTVSS
polyreactivity (PSR sort gate): low polyreactivity

QVQLVESGGGLVQAGGSLRLSCAASGFISSYYAMGWYRQAPGKERELVAAITSGGRTYYADSVKGRFTISRDNAKNTDYLQMNSLKPEDTAVYYCGKYSRTNAFDYWGQGTQVTVSS
polyreactivity (PSR sort gate): high polyreactivity

QVQLVESGGGLVQAGGSLRLSCAASGFIVNVYAMVWYRQAPGKERELVAAISTSGSNTYYADSVKGRFTISLDNAKNTVYLQMNSLKPEDTAVYYCNAVRDRVRWHYYAVYYWGQGTQVTVSS
polyreactivity (PSR sort gate): high polyreactivity

QVQLVESGGGLVQAGGSLRLSCAASGFIVVFNAMGWYRQAPGKERELVAAINGGDITNYADSVKGRFTISRDNAKNTVYLQMNSLKPEDTAVYYCAADGEDSMWTGYDYDYWGQGTQVTVSS
polyreactivity (PSR sort gate): low polyreactivity

QVQLVESGGGLVQAGGSLRLSCAASGFIWSYVMGWYRQAPGKERQLVAAISRSGGRTYYADSVKGRFTISRDNEKNTVYLQMNSLKPEDTAVYYCAKDGGWSRLHYNYWGQGTQVTVSS
polyreactivity (PSR sort gate): high polyreactivity

QVQLVESGGGLVQAGGSLRLSCAASGFIYDYAMGWYRQAPGKEREFVARINWSGGSTYYADSVKGRFTISRDNAKNTVYLQMNSLKPEDTAVYYCATSGWAWRSSNPYEYWGQGTQVTVSS
polyreactivity (PSR sort gate): low polyreactivity

QVQLVESGGGLVQAGGSLRLSCAASGFIYRYNVMGWYRHAPGKEMEMVAAISTSGGRTYYADSVKGRFTISRDNAKNTVYLQMNSLKPEDSAVYYCNAVKSEVQKVGDGYYWGLGTQVTVSS
polyreactivity (PSR sort gate): high polyreactivity

QVQLVESGGGLVQAGGSLRLSCAASGFIYTSYTMGWYRQAPGKERELVAAISYRGGRTYYADSVNGRFTISRDNAKNTVYLQMNSLKPEVTAVYYCAADRVNREFDYWGQGTQVTVSS
polyreactivity (PSR sort gate): high polyreactivity

QVQLVESGGGLVQAGGSLRLSCAASGFIYVYNAMGWYRKAPGKEREFVAGISRSGGNTYYADSVKGRFTISRDNAKNTVYLQMNSLKPEDTAVYYCAVVNRRFGFPNVALRSNYGDYWGQGTQVTVSS
polyreactivity (PSR sort gate): low polyreactivity

QVQLVESGGGLVQAGGSLRLSCAASGFIYYYNAMGWYSQAPGKERELVAAISSRGTSTYYADSVKGRFTISRENAKNTVYLQMNSLKPEDTAVYYCNALGNFGMDYWGQGNQVTVSS
polyreactivity (PSR sort gate): high polyreactivity

QVQLVESGGGLVQAGGSLRLSCAASGFNFAIYAMGWYRQAPGKERELVAAINSDGSTYYADSLKGLFTISRDNAKNSDYLQINSLKPEDTAVYYCNAETAGHDMDYWGQGTQVTVSS
polyreactivity (PSR sort gate): low polyreactivity

QVQLVESGGGLVQAGGSLRLSCAASGFNFERYAMGWYRQAPGKERELVAAISSRGGGTYYADSVKGRFTISRDNAKNTVYLQMNSLKPEDTAVYYCNRPYDYSYNYWGQGTQVTVSS
polyreactivity (PSR sort gate): high polyreactivity

Source: the nanobody polyreactivity screen of Harvey et al. (2022)
